Earlier results on one substance are cited in article PMC3727217.

The series addresses His87 (UniProt position 88, YGATGHPGIIP). Description: NMR. Conditions: not stated (context implies ligand-free FKBP12; ref 47 studied both the absence and presence of ligands).

On to “FK506-binding protein FKBP12 (peptidyl-prolyl cis-trans isomerase FKBP1A) (Homo sapiens)”, for which the pKa – broadly, the negative logarithm of the acid dissociation constant – is listed as 5.92.
